Assay results taken from patent US20230272055A1 (Incyte, published 2023).

B1: anti-mutCALR antibody clone 1 (antibody, human IgG1, lambda, V domains shown)
VH: EVQLVQSGAEVKKPGASVKVSCKVSGYTLTELSMQWVRQAPGKGLEWMGGFDPDDGETMYAEKFQGRLTVTEDTSTDTVYMELRSLTSEDTALYFCATSPGYDFFDYWGQGTLVTVSS
VL: SYVLTQPPSVSVAPGKTARITCGGNYIGSKSVHWYQQKPGQAPVLVVYDDGDRPSGIPARFSGSNSGNTATLTISRVEAGDEADYYCQVWDSISDHVVFGGGTKLTVLG
notes: human IgG1
B2: anti-mutCALR antibody clone 5 (antibody, human IgG1, lambda, V domains shown)
VH: EVQLVQSGAEVKKPGASVKVSCKVSGYTLTELSMQWVRQAPGKGLEWMGGFDPDDGETMYAEKFQGRLTVTEDTSTDTVYMELRSLTSEDTALYFCATSPGYDFFDYWGQGTLVTVSS
VL: SYVLTQPPSVSVAPGQTASITCVGTNFGSKNVHWYQQRPGQAPVLVVYDDSDRPSGIPERFSGSNSGNTATLTISRVEAGDEADYYCQVWDSSSDHLIFGGGTKLTVLG
notes: human IgG1
B3: anti-mutCALR antibody clone 2 (antibody, human IgG1, lambda, V domains shown)
VH: EVQLVQSGAEVKKPGASVKVSCKVSGYTLTELSMQWVRQAPGKGLEWMGGFDPDDGETMYAEKFQGRLTVTEDTSTDTVYMELRSLTSEDTALYFCATSPGYDFFDYWGQGTLVTVSS
VL: SYELTQPPSVSVAPGKTARITCGGDNIGSKSVHWYQQKPGQAPVLVVYDDSDRPSGIPERFSGSNSGNTATLTISRVEAGDEADYYCQVWDSSIDHLIFGGGTKVTVLG
notes: human IgG1
B4: anti-mutCALR antibody clone 7 (antibody, human IgG1, lambda, V domains shown)
VH: EVQLVQSGAEVKKPGASVKVSCKVSGYTLTELSMQWVRQAPGKGLEWMGGFDPDDGETMYAEKFQGRLTVTEDTSTDTVYMELRSLTSEDTALYFCATSPGYDFFDYWGQGTLVTVSS
VL: SYVLTQPPSVSVAPGQTASITCVGTNFGSKNVHWYQQRPGQAPVLVVYDDSDRPSGIPERFSGSNSGNTATLTINRVEAGDEADYYCQVWDSSNDLLIFGGGTKLTVLG
notes: human IgG1
B5: anti-mutCALR antibody clone 20 (antibody, human IgG1, lambda, V domains shown)
VH: EVQLVQSGAEVKKPGASVKVSCKVSGYTLTELSMQWVRQAPGKGLEWMGGFDPDDGETMYAEKFQGRLTVTEDTSTDTVYMELRSLTSEDTALYFCATSPGYDFFDYWGQGTLVTVSS
VL: SYVLTQPPSVSVAPGKTARITCGGNNIGSKGVHWYQQKPGQAPVLVVYDDSDRPSGIPERFSGSNSGNTATLTINRVEAGDEADYYCQVWDSSNDLLIFGGGTKLTVLG
notes: human IgG1
B6: anti-mutCALR antibody clone 3 (antibody, human IgG1, lambda, V domains shown)
VH: EVQLVQSGAEVKKPGASVKVSCKVSGYTLTELSMQWVRQAPGKGLEWMGGFDPDDGETMYAERFQGRLTVTEDTSTDTVYMELRSLTSEDTALYFCATSPGYDFFDYWGQGTLVTVSS
VL: SYVLTQPPSVSVAPGQTARITCGGNNIGSKSVHWYQQKPGQAPVLVVYDDSDRPSGIPERFSGSNSGNTATLTINRVEAGDEADYYCQVWDSSNDLLIFGGGTKLTVLG
notes: human IgG1
B7: anti-mutCALR antibody clone 18 (antibody, human IgG1, lambda, V domains shown)
VH: EVQLVQSGAEVKKPGASVKVSCKVSGYTLTELSMQWVRQAPGKGLEWMGGFDPDDGETMYAEKFQGRLTVTEDTSTDTVYMELRSLTSEDTALYFCATSPGYDFFDYWGQGTLVTVSS
VL: SYVLTQPPSVSVAPGKTARITCGGNNIGSKSVHWYQQKPGQAPVLVVYDDSDRPLGIPERFSGSNSGNTATLTINRVEAGDEADYYCQVWDSSNDLLIFGGGTKLTVLG
notes: human IgG1
B8: anti-mutCALR antibody clone 22 (antibody, human IgG1, lambda, V domains shown)
VH: EVQLVQSGAEVKKPGASVKVSCKVSGYTLTELSMQWVRQAPGKGLEWMGGFDPDDGETMYAEKFQGRLTVTEDTSTDTVYMELRSLTSEDTALYFCATSPGYDFFDYWGQGTLVTVSS
VL: SYVLTQPPSVSVAPGKTARITCGGNNIGSKNVHWYQQKPGQAPVLVVYDDSDRPSGIPERFSGSNSGNTATLTINRVEAGDEADYYCQVWDSSNDLLIFGGGTKLTVLG
notes: human IgG1
B9: anti-mutCALR antibody clone 4 (antibody, human IgG1, lambda, V domains shown)
VH: EVQLVQSGAEVKKPGASVKVSCKVSGYTLTELSMQWVRQAPGKGLEWMGGFDPDDGETMYAEKFQGRLTVTEDTSTDTVYMELRSLTSEDTALYFCATSPGYDFFDYWGQGTLVTVSS
VL: SYVLTQPPSVSVAPGQTARITCGGNNIGSKSVHWYQQKPGQAPVLVVYDDSDRPSGIPERFSGSNSGNTATLTINRVEAGDEADYYCQVWDSSNDLLIFGGGTKLTVLG
notes: human IgG1
B10: anti-mutCALR antibody clone 16 (antibody, human IgG1, lambda, V domains shown)
VH: EVQLVQSGAEVKKPGASVKVSCKVSGYTLTELSMQWVRQAPGKGLEWMGGFDPDDGETMYAEKFQGRLTVTEDTSTDTVYMELRSLTSEDTALYFCATSPGYDFFDYWGQGTLVTVSS
VL: SYVLTQPPSVSVAPGKTARITCGGNNTGSKSVHWYQQKPGQAPVLVVYDDSDRPSGIPERFSGSNSGNTATLTINRVEAGDEADYYCQVWDSSNDLLIFGGGTKLTVLG
notes: human IgG1
B11: anti-mutCALR antibody clone 19 (antibody, human IgG1, lambda, V domains shown)
VH: EVQLVQSGAEVKKPGASVKVSCKVSGYTLTELSMQWVRQAPGKGLEWMGGFDPDDGETMYAEKFQGRLTVTEDTPTDTVYMELRSLTSEDTALYFCATSPGYDFFDYWGQGTLVTVSS
VL: SYVLTQPLSVSVALGQTARITCGGSNIGDIRVHWYQQKPGQAPVLVVYDDSDRPSGIPERFSGSNSGNTATLTINRVEAGDEADYYCQVWDSSNDLLIFGGGTKLTVLG
notes: human IgG1
B12: anti-mutCALR antibody clone 13 (antibody, human IgG1, lambda, V domains shown)
VH: QVQLVQSGAEVKKPGASVKVSCKVSGYTLTELSMQWVRQAPGKGLEWMGGFDPDDGETMYAEKFQGRLTVTEDTSTDTVYMELRSLTSEDTALYFCATSPGYDFFDYWGQGTLVTVSS
VL: not shown
notes: human IgG1
B13: anti-mutCALR antibody clone 21 (antibody, human IgG1, lambda, V domains shown)
VH: EVQLVQSGAEVKKPGASVKVSCEVSGYTLTELSMQWVRQAPGKGLEWMGGFDPDDGETMYAEKFQGRLTVTEDTSTDTVYMELRSLTSEDTALYFCATSPGYDFFDYWGQGTLVTVSS
VL: SYVLTQPPSVSVAPGQTARVSCGGNNIGSKSVNWYRQKPGQAPVLVIYDDSDRPSGIPERFSGSNSGNTATLTISRVEAGDEADYYCQVWDSSNDLLIFGGGTKLTVLG
notes: human IgG1
B14: anti-mutCALR antibody clone 10 (antibody, human IgG1, lambda, V domains shown)
VH: EVQLVQSGAEVKKPGASVKVSCKVSGYTLTELSMQWVRQAPGKGLEWMGGFDPDDGETMYAEKFQGRLTVTEDTSTDTVYMELRSLTSEDTALYFCATSPGYDFFDYWGQGTLVTVSS
VL: SYELTQPPSVSVAPGQTARIPCGGNNIGSEGVHWYQQKPGQAPVLVVYDDSDRPSGIPERFSGSNSGNTATLTISRVEAGDEADYYCQVWDSSNDLLIFGGGTKLTVLG
notes: human IgG1
B15: anti-mutCALR antibody clone 8 (antibody, human IgG1, lambda, V domains shown)
VH: QVQLVQSGAEVKKPGSSVKVSCKVSGYTLTELSMQWVRQAPGKGLEWMGGFDPDDGETMYAEKFQGRLTVTEDTSTDTVYMELRSLTSEDTALYFCATSPGYDFFDYWGQGTLVTVSS
VL: SYELTQPPSVSVAPGQTARITCGGNNIGSKSVHWYQQKPGQAPVLVVYDDSDRPSGIPERFSGSNSGRTATLTISRVEAGDEADYHCQVWDSSSDHLVFGGGTKLTVLG
notes: human IgG1
B16: anti-mutCALR antibody clone 12 (antibody, human IgG1, lambda, V domains shown)
VH: EVQLVQSGAEVKKPGASVKVSCKVSGYTLTELSMQWVRQAPGKGLEWMGGFDPDGGETMYAEKFQGRLTVTEDTSTDTVYMELRSLTSEDTALYFCATSPGYDFFDYWGQGTLVTVSS
VL: SYVLTQPPSVSVAPGQTARVSCGGNNIGSKSVNWYRQKPGQAPVLVIYDDSDRPSGIPERFSGSNSGNTATLTINRVEAGDEADYYCQVWDSSNDLLIFGGGTKLTVLG
notes: human IgG1
B17: anti-mutCALR antibody clone 9 (antibody, human IgG1, lambda, V domains shown)
VH: EVQLVQSGAEVKKPGASVKVSCKVSGYTLTELSMQWVRQAPGKGLEWMGGFDPDDGETMYAEKFQGRLTVTEDTSTDTVYMELRSLTSEDTALYFCATSPGYDFFDYWGQGTLVTVSS
VL: SYVLTQPPSVSVAPGQTARIPCGGNNIGSKSVHWYQQKPGQAPVLVVYDDRDRPSGIPERFSGSNSGNTATLTINRVEAGDEADYYCQVWDSSNDLLIFGGGTKLTVLG
notes: human IgG1
B18: anti-mutCALR antibody clone 41 (antibody, human IgG1, lambda, V domains shown)
VH: EVQLVQSGAEVKKPGASVKVSCKVSGYTLTELSMHWVRQAPGKGLEWMGLVDPEDGETIYAQKFQGRVTMTEDTSTDTAYMELSSLRSEDTAVYYCAREEWSGDGDDAFDIWGQGTMVTVSS
VL: QSVLTQPPSVSAAPGQKVTISCSGSSSNIGSYSVSWYQQLPGTAPKLLIYDNNKRPSGIPDRFSGSNSGTSATLGITGLQTGDEADYYCGTWDSSLSAWVFGGGTKLTVLG
notes: human IgG1
B19: anti-mutCALR antibody clone 42 (antibody, human IgG1, lambda, V domains shown)
VH: EVQLVQSGAEVKKPGASVKVSCKVSGYTLTELSMHWVRQAPGKGLEWMGLVDPEDGETIYAQKFQGRVTMTEDTSTDTAYMELSSLRSEDTAVYYCAREEWSGDGDDAFDIWGQGTMVTVSS
VL: QSVLTQPPSVSAAPGQKVTISCSGSSSNIGSYSVSWYQQLPGTAPKLLIYDDNKRPSGIPDRFSGSNSGTSATLSITGLQTGDEADYYCGTWDSSLSAWVFGGGTKLTVLG
notes: human IgG1

What follows are binders tested against T1, Recombinant MBP-mutCALR Type 1 fusion protein (human) (assay: SPR, IgG captured, 1:1 fit, Exp. 1).
T1 construct: custom made at Cepter; also called recombinant mutCALR protein
Experimental: Experiment 1: Recombinant MBP-mutCALR Type 1 fusion protein was custom made at Cepter (cepterbiopartners.com). Data for the interaction of antibodies with recombinant MBP-mutCALR Type 1 fusion protein were collected at 25° C. on a Biacore 8K instrument (Cytiva, Marlborough, Mass.), and all reagents were obtained from Cytiva unless otherwise specified. The experiments were conducted using Tris-buffered saline (pH 7.2), 0.005% Surfactant P20, 1 mM CaCl₂) as running buffer. To prepare the capture surfaces, anti-human IgG (Fc) antibodies (Product #29234600) was amine-coupled onto a CM4 chip (Product #BR100534) under standard conditions using an Amine Coupling Kit (Product #BR100050). […] The kinetics parameters were obtained by applying 1:1 binding model to fit the data from multiple-cycle injection experiments using Biacore Insight Evaluation software.
B1 showed a Kd of 14.2 nM, a koff of 0.0196 s⁻¹ and a kon of 1.38e+06 M⁻¹ s⁻¹. Work on B2 yielded a Kd of 4.33 nM, a koff of 0.00405 s⁻¹ and a kon of 935000 M⁻¹ s⁻¹. In the case of B3, the Kd is reported as 7.58 nM, the koff is reported as 0.0123 s⁻¹ and the kon is reported as 1.63e+06 M⁻¹ s⁻¹. B4 showed a Kd of 3.83 nM, a koff of 0.00609 s⁻¹ and a kon of 1.59e+06 M⁻¹ s⁻¹. B5 was tested, and the Kd was 4.46 nM, the koff was 0.00498 s⁻¹ and the kon was 1.12e+06 M⁻¹ s⁻¹. B6 was tested, and the Kd was 3.45 nM, the koff was 0.00716 s⁻¹ and the kon was 2.08e+06 M⁻¹ s⁻¹. With B7 the Kd was 2.66 nM, the koff was 0.00628 s⁻¹ and the kon was 2.37e+06 M⁻¹ s⁻¹. B8 was tested, and the Kd was 12.6 nM, the koff was 0.00289 s⁻¹ and the kon was 229000 M⁻¹ s⁻¹. Binder B9 has a Kd of 4.33 nM, a koff of 0.00704 s⁻¹ and a kon of 1.63e+06 M⁻¹ s⁻¹. With B10 the Kd was 12.5 nM, the koff was 0.0354 s⁻¹ and the kon was 2.84e+06 M⁻¹ s⁻¹. For B11, the Kd was 9.04 nM, the koff was 0.0132 s⁻¹ and the kon was 1.46e+06 M⁻¹ s⁻¹. B12 showed a Kd of 10.1 nM, a koff of 0.0301 s⁻¹ and a kon of 2.99e+06 M⁻¹ s⁻¹. B13 showed a Kd of 2.58 nM, a koff of 0.00664 s⁻¹ and a kon of 2.57e+06 M⁻¹ s⁻¹. In the case of B14, the Kd is reported as 1.38 nM, the koff is reported as 0.00292 s⁻¹ and the kon is reported as 2.11e+06 M⁻¹ s⁻¹. In the case of B15, the Kd is reported as 4.58 nM, the koff is reported as 0.00802 s⁻¹ and the kon is reported as 1.75e+06 M⁻¹ s⁻¹. B16 was tested, and the Kd was 4.08 nM, the koff was 0.0024 s⁻¹ and the kon was 589000 M⁻¹ s⁻¹. With B17 the Kd was 2.99 nM, the koff was 0.00904 s⁻¹ and the kon was 3.02e+06 M⁻¹ s⁻¹. In the case of B18, the Kd is reported as 4.88 nM, the koff is reported as 0.00811 s⁻¹ and the kon is reported as 1.66e+06 M⁻¹ s⁻¹. B19 gave a Kd of 6.97 nM, a koff of 0.00452 s⁻¹ and a kon of 649000 M⁻¹ s⁻¹.
